Measured values taken from paper PMC8182377, “Tying up the Loose Ends: A Mathematically Knotted Protein” (Frontiers in Chemistry, 2021).

Key:
lYibK (linear PaYibK_lo) = molecular target: T1, lYibK (linear PaYibK_lo) (Pseudomonas aeruginosa, UniProt Q9HU57); assay: isothermal titration calorimetry; assay type: binding
T1 construct: gene trmL; recombinant in E. coli ER2566 from pBHRSF260, N-terminal His-SUMO fusion cut by Ulp1; homodimer
T1 sequence (Q9HU57 1-153): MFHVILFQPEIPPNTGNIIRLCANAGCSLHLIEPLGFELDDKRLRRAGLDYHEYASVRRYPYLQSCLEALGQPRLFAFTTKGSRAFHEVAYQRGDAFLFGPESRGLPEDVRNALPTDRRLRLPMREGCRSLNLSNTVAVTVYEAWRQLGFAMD

[1] = molecular target: T2, cYibK (cYibK_lo, backbone-cyclized PaYibK) (Pseudomonas aeruginosa, UniProt Q9HU57); assay: isothermal titration calorimetry; assay type: binding
T2 construct: gene trmL; recombinant in E. coli ER2566 from pITRSF3D (SUMO fusion cut, LPETG-H6), N and C termini joined by S. aureus sortase A through a nine-residue linker, His-tag removed by ligation; backbone-cyclized, homodimer

[2] = molecular target: backbone-cyclized YibK from Pseudomonas aeruginosa with a nine-residue linker (sortase A ligation of PaYibK_lo) (Pseudomonas aeruginosa); assay: SEC-SAXS; native conditions: buffer A (50 mM Tris-HCl pH 7.4, 0.5 mM EDTA, 5 mM DTT) without urea, 2% glycerol; protein at 10 mg/ml; online size-exclusion column (Bio SEC-3)
[3] = molecular target: linear form of YibK from Pseudomonas aeruginosa with the identical sequence as PaYibK_lo / cYibK (Pseudomonas aeruginosa); assay: as above
[4] = molecular target: wild-type YibK from Pseudomonas aeruginosa in its linear form (Pseudomonas aeruginosa); assay: crystal structure; PaYibK: 0.15 M ammonium sulfate, 0.9 M lithium sulfate, 0.1 M sodium citrate pH 5.6, 2.0 Å; cYibK: 0.3 M ammonium sulfate, 0.1 M MES pH 6.0, 25% PEG MME 5,000, 2.2 Å

Nc1ncnc2c1ncn2[C@@H]1O[C@H](CSCC[C@H](N)C(=O)O)[C@@H](O)[C@H]1O [S-adenosyl-L-homocysteine]
Kd (lYibK (linear PaYibK_lo)): 8.8 ± 0.01 µM
Kd [1]: 8.93 ± 0.03 µM

backbone-cyclized YibK from Pseudomonas aeruginosa with a nine-residue linker (sortase A ligation of PaYibK_lo) (enzyme)
stoichiometry N [2]: 2

linear form of YibK from Pseudomonas aeruginosa with the identical sequence as PaYibK_lo / cYibK (enzyme)
stoichiometry N [3]: 2

wild-type YibK from Pseudomonas aeruginosa in its linear form (enzyme)
stoichiometry N [4]: 2
